For test [1], the target named is full-length human ILT7 on cells (human) (UniProt P59901). Put plainly: competitive FACS on CHOK1 cells expressing human ILT7; competitor Tab1-Alexa488; negative control, reference of the calculation.
Test [2] shares this target. Put plainly: flow cytometry of human PBMCs, gate on pDCs (CD11c low, HLA-DR+, CD123+). Background: Flow cytometry measures light scatter and fluorescence of single cells or particles in a stream.
The target is the same in test [3]. Put plainly: competitive FACS on CHOK1 cells expressing human ILT7; competitor Tab1-Alexa488; negative control that sets the reference signal.

full-length human ILT7 on cells (human), sequence (P59901 other isoform, or with tags, fused parts or gaps): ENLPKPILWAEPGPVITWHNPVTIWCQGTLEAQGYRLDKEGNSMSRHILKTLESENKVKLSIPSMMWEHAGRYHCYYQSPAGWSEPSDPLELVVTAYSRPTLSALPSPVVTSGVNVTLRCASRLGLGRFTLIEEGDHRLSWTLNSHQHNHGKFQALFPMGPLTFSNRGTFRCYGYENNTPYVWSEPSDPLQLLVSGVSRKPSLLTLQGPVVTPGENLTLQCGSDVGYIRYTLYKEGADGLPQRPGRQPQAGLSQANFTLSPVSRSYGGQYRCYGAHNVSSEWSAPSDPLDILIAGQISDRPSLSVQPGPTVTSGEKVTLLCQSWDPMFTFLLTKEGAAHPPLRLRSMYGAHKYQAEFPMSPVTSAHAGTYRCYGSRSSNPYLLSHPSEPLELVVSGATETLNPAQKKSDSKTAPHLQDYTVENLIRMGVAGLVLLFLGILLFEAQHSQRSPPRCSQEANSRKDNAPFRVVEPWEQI

Regarding “isotype antibody hIgG1 (negative control)”, the Inhibition (%) in test [1] was 0%. In addition, the % targeted cells in subpopulation (pDC) in test [2] came out at 2.2%. In addition, the MFI of Tab1-Alexa488 in test [3] is 9670.

These data come from US20260265373A1.
